Results reported in the supplement of paper PMC7877785.
± gives the uncertainty stated by the source.

Assay: self-splicing fitness, log relative to wild type (ln ratio); higher = more splicing; Tetrahymena group I intron in knt gene, E. coli kanamycin selection, DiMSum; sequences stand for … in CUCUCU…GGAGGGAAAAGUUAUCAGGCAUGCACCUGGUAGCUAGUCUUUAAACCAAUAGAUUGCAUCGGUUUAAAAGGCAAGACCGUCAAAUUGCGGGAAAGGGGUCAACAGCCGUUCAGUACCAAGUCUCAGGGGAAACUUUGAGAUGGCCUUGCAAAGGGUAUGGUAAUAAGCUGACGGACAUGGUCCUAACCACGCAGCCAAGUCCUAAGUCAACAGAUCUUCUGUUGAUAUGGAUGCAGUUCACAGACUAAAUGUCGGUCGGGGAAGAUGUAUUCUUCUCAUAAGAUAUAGUCGGACCUCUCCUUAAUGGGAGCUAGCGGAUGAAGUGAUGCAACACUGGAGCCGCUGGGAACUAAUUUGUAUGCGAAAGUAUAUUGAUUAGUUUUGGAGUACUCGUGGUCG
Procedure, shortened: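 The eight P1ex-region nucleotides of an intron in the knt kanamycin-resistance gene on pET-22b(+) were all randomised and the library put into E. coli BL21(DE3). Six replicate transformations were grown overnight at 37°C or 30°C on LB agar with or without 25 μg/mL kanamycin, together with 100 μg/mL carbenicillin, 50 μM IPTG and 0.2% rhamnose. Colonies were pooled and amplicon-sequenced on an Illumina HiSeq 2500. Fitness from DiMSum is the error-weighted combination of wild-type-normalised replicate fold changes, kanamycin over none.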

Row | Sequence | self-splicing fitness (ln) (30 °C) | self-splicing fitness (ln) (37 °C)
1 | GUGAAGCAAUAUUACGACGU | 0.815 ± 0.1 | 0.675 ± 0.1
2 | CUAGAGCAAUAUUACGGACA | -2.86 ± 0.16 | -1.96 ± 0.29
3 | ACACAGCAAUAUUACGUUGC | -3.87 ± 0.11 | -2.58 ± 0.12
4 | CAUAAGCAAUAUUACGCAAA | -2.93 ± 0.44 | -2.46 ± 0.41
5 | UAGAAGCAAUAUUACGACUU | -0.772 ± 0.11 | -0.183 ± 0.17
6 | GGACAGCAAUAUUACGAGGC | -2.17 ± 0.14 | -1.32 ± 0.2
7 | UAACAGCAAUAUUACGUCAC | -2.97 ± 0.15 | -1.82 ± 0.16
8 | UUAGAGCAAUAUUACGUGAC | -3.13 ± 0.18 | -2.64 ± 0.24
9 | CGAUAGCAAUAUUACGGAUC | -3.1 ± 0.3 | -2.6 ± 0.23
10 | GACUAGCAAUAUUACGGCCG | -0.632 ± 0.13 | -0.578 ± 0.16
11 | AUGCAGCAAUAUUACGUCGG | -2.43 ± 0.22 | -1.91 ± 0.26
12 | ACGAAGCAAUAUUACGCCUG | -0.445 ± 0.095 | 0.217 ± 0.12
13 | GGAAAGCAAUAUUACGUUUA | -1.89 ± 0.11 | -1.16 ± 0.11
14 | AGGGAGCAAUAUUACGGGAA | -1.37 ± 0.38 | -2.58 ± 0.37
15 | UCCCAGCAAUAUUACGCAGA | -0.882 ± 0.06 | -0.0561 ± 0.073
16 | GACCAGCAAUAUUACGGACC | -2.21 ± 0.17 | -2.38 ± 0.33
17 | UUUUAGCAAUAUUACGACGA | -0.357 ± 0.14 | 0.422 ± 0.19
18 | GCUUAGCAAUAUUACGGUGA | -1.46 ± 0.092 | -1.75 ± 0.1
19 | AAUCAGCAAUAUUACGUCUU | 0.123 ± 0.06 | 0.106 ± 0.079
20 | GAGCAGCAAUAUUACGCUAA | -1.3 ± 0.15 | -0.144 ± 0.18
21 | ACCGAGCAAUAUUACGACGA | -1.16 ± 0.15 | -0.75 ± 0.15
22 | GGAAAGCAAUAUUACGCGCC | -3.03 ± 0.49 | -2.17 ± 0.42
23 | GGCCAGCAAUAUUACGCUUA | -0.822 ± 0.15 | 0.139 ± 0.17
24 | UCGGAGCAAUAUUACGCAGC | -2.31 ± 0.5 | –

Row | Sequence | self-splicing fitness (ln) (30 °C) | self-splicing fitness (ln) (37 °C)
25 | ACGAAGCAAUAUUACGAAUG | -1.51 ± 0.11 | -2.67 ± 0.18
26 | CCAUAGCAAUAUUACGCCGG | -2.5 ± 0.21 | -3.15 ± 0.47
27 | ACACAGCAAUAUUACGACAA | -1.86 ± 0.11 | -0.755 ± 0.14
28 | GCAUAGCAAUAUUACGACCU | -0.833 ± 0.15 | -0.375 ± 0.15
29 | UUUAAGCAAUAUUACGUGGU | -2.88 ± 0.16 | -2.62 ± 0.21
30 | GAGUAGCAAUAUUACGGUCG | -1.15 ± 0.16 | -0.697 ± 0.19
31 | UGAGAGCAAUAUUACGGUAU | -3.07 ± 0.2 | -1.53 ± 0.3
32 | GCUUAGCAAUAUUACGAGGA | -0.769 ± 0.11 | -0.781 ± 0.1
33 | CACAAGCAAUAUUACGGAAC | -4.35 ± 0.24 | -3.71 ± 0.25
34 | GACUAGCAAUAUUACGUUAA | -2.16 ± 0.12 | -0.716 ± 0.11
35 | GGCGAGCAAUAUUACGUUUU | -1.35 ± 0.094 | -1.35 ± 0.14
36 | GGGAAGCAAUAUUACGGAUC | -0.0316 ± 0.077 | -0.684 ± 0.088
37 | AACCAGCAAUAUUACGCAGA | -1.76 ± 0.11 | -1.37 ± 0.11
38 | GCGCAGCAAUAUUACGACGU | -1.69 ± 0.091 | -1.13 ± 0.13
39 | GAAUAGCAAUAUUACGCGGG | – | -0.0263 ± 0.25
40 | UGGAAGCAAUAUUACGUCCC | -0.397 ± 0.19 | 0.402 ± 0.22
41 | UUAAAGCAAUAUUACGCCGC | -2.1 ± 0.39 | 0.305 ± 0.29
42 | CGAAAGCAAUAUUACGUCAG | -1.1 ± 0.08 | 0.335 ± 0.11
43 | CCAUAGCAAUAUUACGGUCC | -2.72 ± 0.26 | -1.99 ± 0.42
44 | GCCAAGCAAUAUUACGCGCC | -3.75 ± 0.27 | -2.56 ± 0.32
45 | AUCCAGCAAUAUUACGGAGG | -2.21 ± 0.097 | -0.607 ± 0.13
46 | GGCUAGCAAUAUUACGUAAG | -1.64 ± 0.068 | -0.594 ± 0.094
47 | UUACAGCAAUAUUACGCGCA | -0.521 ± 0.11 | -0.892 ± 0.12
48 | UGAUAGCAAUAUUACGGCGG | -0.138 ± 0.095 | -0.142 ± 0.13
